# Data taken from PMC3316156 (Biochemical Journal, 2012).
# B1: human 45CBS (C-terminally truncated human cystathionine β-synthase, residues 1-413) (domain or fragment, UniProt P35520 1-413, looked up)
# chain: MPSETPQAEVGPTGCPHRSGPHSAKGSLEKGSPEDKEAKEPLWIRPDAPSRCTWQLGRPASESPHHHTAPAKSPKILPDILKKIGDTPMVRINKIGKKFGLKCELLAKCEFFNAGGSVKDRISLRMIEDAERDGTLKPGDTIIEPTSGNTGIGLALAAAVRGYRCIIVMPEKMSSEKVDVLRALGAEIVRTPTNARFDSPESHVGVAWRLKNEIPNSHILDQYRNASNPLAHYDTTADEILQQCDGKLDMLVASVGTGGTITGIARKLKEKCPGCRIIGVDPEGSILAEPEELNQTEQTTYEVEGIGYDFIPTVLDRTVVDKWFKSNDEEAFTFARMLIAQEGLLCGGSAGSTVAVAVKAAQELQEGQRCVVILPDSVRNYMTKFLSDRWMLQKGFLKEEDLTEKKPWWWHLR
# B2: CBS-1 (Caenorhabditis elegans) (protein)
# chain: MIQNEVSATHGSTKKGITYNTILEAAQRPTPLVPLKKLKVEHQLQSDIYVKLEYLNIAGSLEDRTADKAFQFAEEIGVVRGDEVFVTAGGSAAISYATVAAVKGIKLTIYAPKGEFDLVDTVLHTLGVKTVELPFGTFAEARVQTDEAAQQKGVFSLNKFTTNAAFVANLQKTALEIEKAVNNKSIGKVGAVVIPLNTGAAAAGIAAYYKGIGEHGVRVVGVTCKKDTIPEMGLDLKNDLLQEYNVEKREVEEDEAYSFTRHLIGTEGIMAGPSSGAAVLEAIKLAKELPAGSTIVVVLMDGIRNYLRHFLDDDWITANKKDVVTRKDGPQPNSIYDPKVLVYDPTKLAGEWTQDPETKSWSHSEVEFNKFNPERPLVLDTVLDAIGKTPLVKLQHIPKAHGVKCNVYVKCEYMNAGGSTKDRIAKRMVEIAEKTGKPGKLVPGVTLIEPTSGNTGIGLSLASAVRGYKCIITMPKKMSKEKSIAMASLGSTIIRTPNEAGFDSPHSHIGVALRLKSEIQDAVVLDQYCNPGNPLAHYEETAEEIIYDMGDKHIDLVVLTAGTGGTVTGISRKIHERIPTAKVVGVDPHGSILAGPAETDIDFYEVEGIGYDFLPGTLDTSAIDYWAKSHDKESFLMARELIRSEGILCGGSSGCAVHYALEECKSLNLPAEANVVVLLPDGIRNYITKFLDDDWMNERHFLDA
# Legend:
# cross-linking = target: the molecule itself; experiment: cross-linking
# [1] = substrate: N[C@@H](CO)C(=O)O; experiment: cystathionine production by LC-MS/MS, non-linear fit; type: biochemical, Caenorhabditis elegans; conditions: co-substrate homocysteine, 100 mM Bis/Tris pH 8.0, 25 °C
# [2] = substrate: N[C@@H](CCS)C(=O)O; experiment: as above; type: biochemical, Caenorhabditis elegans; conditions: co-substrate serine, 100 mM Bis/Tris pH 8.0, 25 °C
Protein,stoichiometry N (cross-linking),Km [1] [mM],kcat [1] [s⁻¹],kcat/Km [1] [M⁻¹ s⁻¹],Km [2] [mM],kcat [2] [s⁻¹],kcat/Km [2] [M⁻¹ s⁻¹]
B1,2,,,,,,
B2,,5.57 ± 0.68,48.1 ± 2.95,8500,4.29 ± 0.97,43.3 ± 4.33,10000
